PMC11243334, “Synthesis and Evaluation of the First ^68Ga-Labeled C-Terminal Hydroxamate-Derived Gastrin-Releasing Peptide Receptor-Targeted Tracers for Cancer Imaging with Positron Emission Tomography” (Molecules, 2024)
Read-outs that look alike come from different tables or passages of the source.

Experiments:
physchem = details: n-octanol/DPBS, pH 7.4
Procedure: LogD7.4 values of [^68Ga]Ga-LW02075, [^68Ga]Ga-LW02050, and [^68Ga]Ga-SB3 were measured via the shake flask method. An aliquot of the ^68Ga-labeled tracer (~1.85 MBq) was added to a 15 mL falcon tube containing 3 mL of n-octanol and 3 mL of DPBS (pH 7.4) followed by 1 min of vortex (n = 3). After that, the mixture was centrifuged at 5000 rpm for 10 min, and samples of the n-octanol (1 mL) and buffer (1 mL) layers were collected and counted on a Perkin Elmer (Waltham, MA, USA) Wizard2 2480 automatic gamma counter. The LogD7.4 values of [^68Ga]Ga-LW02075, [^68Ga]Ga-LW02050, and [^68Ga]Ga-SB3 were calculated following the equation: LogD7.4 = log10[(counts in the n-octanol phase)/(counts in the buffer phase)].

PC-3 tumor xenografts = assay: PET/CT imaging in mice bearing PC-3 tumor xenografts; format: in vivo; details: 1 h post injection
Procedure: (§1) Imaging and biodistribution studies were performed on male NOD.Cg-Rag1^tm1Mom Il2rg^tm1Wjl/SzJ (NRG) mice following previously published procedures. The experiments were conducted following the guidelines established by the Canadian Council on Animal Care and approved by Animal Ethics Committee of the University of British Columbia. The mice were sedated (2.5% isoflurane in oxygen) and injected with 5 × 10^6 PC-3 cells (100 µL; 1:1 PBS/Matrigel) subcutaneously behind the left shoulder. The tumor-bearing mice were used for PET/CT imaging and biodistribution studies when the tumor grew to 5–8 mm in diameter.
PET/CT imaging experiments were performed on a Siemens (Knoxville, TN, USA) Inveon micro PET/CT scanner. Each tumor-bearing mouse was injected with ~3–6 MBq of ^68Ga-labeled tracer through a lateral caudal tail vein under anaesthesia. At around 50 min post injection, a 10 min CT scan was obtained first for localization and attenuation correction after segmentation for reconstructing the PET image, followed by a 10 min static PET scan.

[1] = Ex vivo biodistribution in PC-3 tumor-bearing mice; details: male, mouse, iv, total radioactivity, mean ± SD, n = 4; for tissue uptake at 1 h: NOD.Cg-Rag1^tm1Mom Il2rg^tm1Wjl/SzJ (NRG); for tissue to tissue ratio at 1 h: NOD.Cg-Rag1tm1Mom Il2rgtm1Wjl/SzJ (NRG)
Procedure: (§2) Biodistribution studies were conducted for ^68Ga-labeled SB3, LW02075 and LW02050 in PC-3 tumor-bearing mice (n = 4).
as §1
(§3) For biodistribution studies, the mice were injected with the radiotracer (~2–4 MBq), as described above. Blocking of [^68Ga]Ga-LW02075 and [^68Ga]Ga-LW02050 was conducted by co-injection with 100 μg nonradioactive Ga-LW02075 and Ga-LW02050, respectively, through a lateral caudal tail vein under anaesthesia. At 1 h post injection, the mice were sedated and euthanized by CO2 inhalation. Blood was collected via cardiac puncture, and organs/tissues of interest were collected, weighed, and counted on a Perkin Elmer (Waltham, MA, USA) Wizard2 2480 automatic gamma counter.

PC-3 tumor-bearing mice = assay: Ex vivo biodistribution in PC-3 tumor-bearing mice; details: 1 h post injection, 100 μg nonradioactive standard co-injected
Procedure: as §2, §1, §3

## CC(C)C[C@H](NC(=O)[C@H](Cc1c[nH]cn1)NC(=O)CNC(=O)[C@@H](NC(=O)[C@H](C)NC(=O)[C@H](Cc1c[nH]c2ccccc12)NC(=O)[C@H](CCC(N)=O)NC(=O)[C@@H](Cc1ccccc1)NC(=O)CN1CCC(NC(=O)CN2CCN(CC(=O)O)CCN(CC(=O)O)CCN(CC(=O)O)CC2)CC1)C(C)C)C(=O)NO [[^68Ga]Ga-LW02050, [^68Ga]Ga-DOTA-Pip-D-Phe-Gln-Trp-Ala-Val-Gly-His-Leu-NHOH, metal not drawn]
physchem
  logD: -2.3 ± 0.14
PC-3 tumor xenografts; co-injection with 100 μg nonradioactive standard
  Uptake in PC-3 tumor xenograft in PET image with blocking: close to the background level
PC-3 tumor xenografts; mice
  Excretion pathway in PET images: excreted primarily through the renal pathway
  Pancreas in PET images: nearly invisible
PC-3 tumor xenografts; ~3–6 MBq i.v., mice
  Visualization of PC-3 tumor xenografts in PET images: clearly visualized
[1]; PC-3 tumor, 1 h blocked: co-injected with 100 µg nonradioactive Ga-complexed standard, read-out: PC-3 tumor uptake, blocked
  tissue uptake at 1 h: 0.42 ± 0.08 %ID/g
[1]; PC-3 tumor, 1 h post injection, read-out: PC-3 tumor uptake
  tissue uptake at 1 h: 5.38 ± 1 %ID/g
[1]; adrenal glands, 1 h blocked: co-injected with 100 µg nonradioactive Ga-complexed standard, read-out: Adrenal glands uptake, blocked
  tissue uptake at 1 h: 0.05 ± 0.05 %ID/g
[1]; adrenal glands, 1 h post injection, read-out: Adrenal glands uptake
  tissue uptake at 1 h: 0.43 ± 0.15 %ID/g
[1]; blood, 1 h blocked: co-injected with 100 µg nonradioactive Ga-complexed standard, read-out: Blood uptake, blocked
  tissue uptake at 1 h: 0.34 ± 0.06 %ID/g
[1]; blood, 1 h post injection, read-out: Blood uptake
  tissue uptake at 1 h: 0.57 ± 0.11 %ID/g
[1]; bone, 1 h blocked: co-injected with 100 µg nonradioactive Ga-complexed standard, read-out: Bone uptake, blocked
  tissue uptake at 1 h: 0.03 ± 0.03 %ID/g
[1]; bone, 1 h post injection, read-out: Bone uptake
  tissue uptake at 1 h: 0.14 ± 0.06 %ID/g
[1]; brain, 1 h blocked: co-injected with 100 µg nonradioactive Ga-complexed standard, read-out: Brain uptake, blocked
  tissue uptake at 1 h: 0.01 %ID/g
[1]; brain, 1 h post injection, read-out: Brain uptake
  tissue uptake at 1 h: 0.03 ± 0.01 %ID/g
[1]; fat, 1 h blocked: co-injected with 100 µg nonradioactive Ga-complexed standard, read-out: Fat uptake, blocked
  tissue uptake at 1 h: 0.04 ± 0.01 %ID/g
[1]; fat, 1 h post injection, read-out: Fat uptake
  tissue uptake at 1 h: 0.05 ± 0.01 %ID/g
[1]; heart, 1 h blocked: co-injected with 100 µg nonradioactive Ga-complexed standard, read-out: Heart uptake, blocked
  tissue uptake at 1 h: 0.1 ± 0.02 %ID/g
[1]; heart, 1 h post injection, read-out: Heart uptake
  tissue uptake at 1 h: 0.19 ± 0.03 %ID/g
[1]; kidneys, 1 h blocked: co-injected with 100 µg nonradioactive Ga-complexed standard, read-out: Kidneys uptake, blocked
  tissue uptake at 1 h: 1.95 ± 0.44 %ID/g
[1]; kidneys, 1 h post injection, read-out: Kidneys uptake
  tissue uptake at 1 h: 2.88 ± 0.68 %ID/g
[1]; large intestine, 1 h blocked: co-injected with 100 µg nonradioactive Ga-complexed standard, read-out: Large intestine uptake, blocked
  tissue uptake at 1 h: 0.19 ± 0.17 %ID/g
[1]; large intestine, 1 h post injection, read-out: Large intestine uptake
  tissue uptake at 1 h: 0.34 ± 0.15 %ID/g
[1]; liver, 1 h blocked: co-injected with 100 µg nonradioactive Ga-complexed standard, read-out: Liver uptake, blocked
  tissue uptake at 1 h: 0.29 ± 0.2 %ID/g
[1]; liver, 1 h post injection, read-out: Liver uptake
  tissue uptake at 1 h: 0.44 ± 0.05 %ID/g
[1]; lungs, 1 h blocked: co-injected with 100 µg nonradioactive Ga-complexed standard, read-out: Lungs uptake, blocked
  tissue uptake at 1 h: 0.33 ± 0.09 %ID/g
[1]; lungs, 1 h post injection, read-out: Lungs uptake
  tissue uptake at 1 h: 0.55 ± 0.06 %ID/g
[1]; muscle, 1 h blocked: co-injected with 100 µg nonradioactive Ga-complexed standard, read-out: Muscle uptake, blocked
  tissue uptake at 1 h: 0.06 ± 0.02 %ID/g
[1]; muscle, 1 h post injection, read-out: Muscle uptake
  tissue uptake at 1 h: 0.13 ± 0.02 %ID/g
[1]; pancreas, 1 h blocked: co-injected with 100 µg nonradioactive Ga-complexed standard, read-out: Pancreas uptake, blocked
  tissue uptake at 1 h: 0.1 ± 0.03 %ID/g
[1]; pancreas, 1 h post injection, read-out: Pancreas uptake
  tissue uptake at 1 h: 0.53 ± 0.11 %ID/g
[1]; small intestine, 1 h blocked: co-injected with 100 µg nonradioactive Ga-complexed standard, read-out: Small intestine uptake, blocked
  tissue uptake at 1 h: 0.26 ± 0.09 %ID/g
[1]; small intestine, 1 h post injection, read-out: Small intestine uptake
  tissue uptake at 1 h: 0.43 ± 0.04 %ID/g
[1]; spleen, 1 h blocked: co-injected with 100 µg nonradioactive Ga-complexed standard, read-out: Spleen uptake, blocked
  tissue uptake at 1 h: 0.12 ± 0.02 %ID/g
[1]; spleen, 1 h post injection, read-out: Spleen uptake
  tissue uptake at 1 h: 0.25 ± 0.04 %ID/g
[1]; stomach, 1 h blocked: co-injected with 100 µg nonradioactive Ga-complexed standard, read-out: Stomach uptake, blocked
  tissue uptake at 1 h: 0.04 ± 0.02 %ID/g
[1]; stomach, 1 h post injection, read-out: Stomach uptake
  tissue uptake at 1 h: 0.34 ± 0.14 %ID/g
[1]; testes, 1 h blocked: co-injected with 100 µg nonradioactive Ga-complexed standard, read-out: Testes uptake, blocked
  tissue uptake at 1 h: 0.13 ± 0.05 %ID/g
[1]; testes, 1 h post injection, read-out: Testes uptake
  tissue uptake at 1 h: 0.17 ± 0.05 %ID/g
[1]; tumor and bone, 1 h blocked: co-injected with 100 µg nonradioactive Ga-complexed standard, read-out: Tumor/bone uptake ratio, blocked
  tissue to tissue ratio at 1 h: 27.1 ± 18.1
[1]; tumor and bone, 1 h post injection, read-out: Tumor/bone uptake ratio
  tissue to tissue ratio at 1 h: 43.6 ± 22.6
[1]; tumor and kidney, 1 h blocked: co-injected with 100 µg nonradioactive Ga-complexed standard, read-out: Tumor/kidney uptake ratio, blocked
  tissue to tissue ratio at 1 h: 0.22 ± 0.05
[1]; tumor and kidney, 1 h post injection, read-out: Tumor/kidney uptake ratio
  tissue to tissue ratio at 1 h: 1.92 ± 0.41
[1]; tumor and muscle, 1 h blocked: co-injected with 100 µg nonradioactive Ga-complexed standard, read-out: Tumor/muscle uptake ratio, blocked
  tissue to tissue ratio at 1 h: 8.28 ± 2.7
[1]; tumor and muscle, 1 h post injection, read-out: Tumor/muscle uptake ratio
  tissue to tissue ratio at 1 h: 44.4 ± 14.1
[1]; tumor and pancreas, 1 h blocked: co-injected with 100 µg nonradioactive Ga-complexed standard, read-out: Tumor/pancreas uptake ratio, blocked
  tissue to tissue ratio at 1 h: 4.3 ± 0.83
[1]; tumor and pancreas, 1 h post injection, read-out: Tumor/pancreas uptake ratio
  tissue to tissue ratio at 1 h: 10.7 ± 4.17
[1]; tumor and whole blood, 1 h blocked: co-injected with 100 µg nonradioactive Ga-complexed standard, read-out: Tumor/blood uptake ratio, blocked
  tissue to tissue ratio at 1 h: 1.23 ± 0.14
[1]; tumor and whole blood, 1 h post injection, read-out: Tumor/blood uptake ratio
  tissue to tissue ratio at 1 h: 9.68 ± 2.84
PC-3 tumor-bearing mice
  Reduction of average pancreas uptake by co-injection of nonradioactive standard: 81%
  Reduction of average uptake in PC-3 tumor xenografts by co-injection of nonradioactive standard: 92%
